B1: Tryptophan synthase alpha chain, P0A877 (parent)
chain: MERYESLFAQLKERKEGAFVPFVTLGDPGIEQSLKIIDTLIEAGADALELGIPFSDPLADGPTIQNATLRAFAAGVTPAQCFEMLALIRQKHPTIPIGLLMYANLVFNKGIDEFYAQCEKVGVDSVLVADVPVEESAPFRQAALRHNVAPIFICPPNADDDLLRQIASYGRGYTYLLSRAGVTGAENRAALPLNHLVAKLKEYNAAPPLQGFGISAPDQVKAAIDAGAAGAISGSAIVKIIEQHINEPEKMLAALKVFVQPMKAATRS

Variants of: B1
Details: Escherichia coli (strain K12), pH 7.8, Thermal, DSC, Sodium phosphate 1 mM, reversible: yes, structure 1WQ5, whole UniProt chain shown

Variant	ddG of mutation (higher = less stable) (57.8 °C, EDTA 0.2 mM) [kcal/mol]	heat capacity change of unfolding (57.8 °C, EDTA 0.2 mM) [kcal/mol/K]	Tm [°C]	change of melting temperature, mutant - wild type (higher = more stable) [°C]	heat capacity change of unfolding [kcal/mol/K]	unfolding enthalpy (calorimetric) [kcal/mol]	unfolding enthalpy (van 't Hoff) [kcal/mol]
MERYESLFAQLKERKEGAFVPFVTLGDPGIEQSLKIIDTLIEAGADALELGIPFSDPLADGPTIQNATLRAFAAGVTPAQCFEMLALIRQKHPTIPIGLLMYANLVFNKGIDEFYAQCEKVGVDSVLVADVPVEESAPFRQAALRHNVAPIFICPPNADDDLLRQIASYGRGYTYLLSRAGVTGAENRAALPLNHLVAKLKEYNAAPPLQEFGISAPDQVKAAIDAGAAGAISGSAIVKIIEQHINEPEKMLAALKVFVQPMKAATRS [G211E]	-0.6	2.7	59.6	1.8	2.7	109	107
MERYESLFAQLKERKEGAFVPFVTLGDPGIEQSLKIIDTLIEAGADALELGIPFSDPLADGPTIQNATLRAFAAGVTPAQCFEMLALIRQKHPTIPIGLLMYANLVFNKGIDEFYAQCEKVGVDSVLVADVPVEESAPFRQAALRHNVAPIFICPPNADDDLLRQIASYGRGYTYLLSRAGVTGAENRAALPLNHLVAKLKEYNAAPPLQRFGISAPDQVKAAIDAGAAGAISGSAIVKIIEQHINEPEKMLAALKVFVQPMKAATRS [G211R]	-0.1	2.8	58	0.2	2.8	111	113

From FireProtDB (doi:10.1021/bi00548a004)
